Laboratory results: article PMC5719984, “The Structure of a Conserved Domain of TamB Reveals a Hydrophobic β Taco Fold” (Structure(London, England:1993), 2017)

Target: the molecule itself
Experiment: SEC-MALS; 100 μl samples at 1-5 mg/ml on Superdex 200 10/300 GL in 20 mM Tris, 200 mM NaCl, 0.05 % LDAO pH 7.9, 0.6 ml/min

B1: TamB_(963-1138) (domain or fragment, E. coli K12, UniProt P39321 963-1138, looked up)
chain: MDVSPDVVFEATPNLFTLDGRVDVPWARIVVHDLPESAVGVSSDVVMLNDNLQPEEPKTASIPINSNLIVHVGNNVRIDAFGLKARLTGDLNVVQDKQGLGLNGQINIPEGRFHAYGQDLIVRKGELLFSGPPDQPYLNIEAIRNPDATEDDVIAGVRVTGLADEPKAEIFSDPAM
notes: whole TamB has 1,259 amino acids; Cloned into pET-21a via NdeI and XhoI; A selenomethionine-labelled form was used for phasing only; Construct as described by Josts et al., 2014
B1 was tested, and the “stoichiometry N” value was 2.
